# This sample holds only a part of the variants without activity.
# B1: TPR 5TU (parent)
# chain: GGAUCUUCUCGAUCUAACAAAAAAGACAAAUCUGCCACAAAGCUUGAGAGCAUCUUCGGAUGCAGAGGCGGCAGCCUUCGGUGGCGCGAUAGCGCCAACGUUCUCAACUAUGACACGCAAAACGCGUGCUCCGUUGAAUGGAGUUUAUCAUG
# Variants of: B1
# Test: polymerase ribozyme fitness, log enrichment relative to wild type (log ratio); higher = more active; in vitro selection for triplet polymerase activity
# Method in brief: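 Frozen incubation at −7 °C formed the core of a single, triplicate in vitro selection round applied to PCR-built, transcribed mutant libraries of each subunit of a heterodimeric triplet polymerase ribozyme. Extended constructs were gel-excised, captured with streptavidin beads and amplified by RT-PCR, and input and output libraries were Illumina-sequenced with a filter of ≥10 input reads and ≥1 read per output. Fitness is the logarithm of genotype enrichment relative to wild-type enrichment, with inverse-variance-weighted replicate averaging, and the logarithm is base 2.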
row,Variant,polymerase ribozyme fitness (log ratio)
1,U13G A24U A28U A29U C54U C69A C76G G94U A97C U135C,≤ -4.2
2,U13A A28U C43U G65A A106G,≤ -4.2
3,U13C G25C C76A A97U C103G C105G U139C,≤ -4.2
4,A12U A24C G46A A52G G141U A147G,≤ -4.2
5,U13C C57A G58A A66G U82G C116U,≤ -4.2
6,A12U C93U A97U C103U C105U G133U,≤ -4.2
7,C14A A21C A22C,-0.829
8,U13C C14G C57A U101G,-1.23
9,U13C G50U G86C A89U C96A C116A,≤ -4.2
10,U13C A21G U31C G42A A52C C95A C129G,≤ -4.2
11,A12U A39G C95U,-2.3
12,A12U C32G G100A C129A U144G,≤ -4.2
13,C14G A23U C54G G67U A142U U151A,≤ -4.2
14,U13A A22U A41C U53G,-2.31
15,C14G A39C C54G G71U C79G,≤ -4.2
16,U13C A49C C93A,≤ -4.2
17,U13G G48A C93A C125G,≤ -4.2
18,C14G C27G U55G G68A U82A G94C A107U A142G,≤ -4.2
19,A12G G70A C118U,-3.56
20,A12G C54U G86U C105U G143A,-2.5
21,C14G A17G G46C G81A C96G A120G,≤ -4.2

row,Variant,polymerase ribozyme fitness (log ratio)
1,C14A A19U A21C A60G,-1.8
2,U13G C96G A120G,-1.51
3,U13C U61C C85U A89C U144A,≤ -4.2
4,A12G C27U G46U C57A C85G A122C,-3.63
5,C14G A37U G86U A89U A119U C132G,≤ -4.2
6,A12G C32U C85A A137C,≤ -4.2
7,U13C G94C U104G,-2.15
8,C14A,-1.08
9,C14G,-2.09
10,C14A A73G G86A A98U,-3.58
11,A12G C14U A19G A21U A28G G65C G84C G124U G143C U145C,≤ -4.2
12,U13A A39U U45A G59C C72U G94C U101A A142C,≤ -4.2
13,U13G C93G,-3.88
14,C14G A60U G86U,≤ -4.2
15,A12U G58A C85G A106G A137U A150C,≤ -4.2
16,C14G A20C G92C C125G,-3.88
17,A12G G84A,-0.68
18,A12U C14G,-2.05
19,A12U U55A G141A,-1.32
20,A12G C27A C76A A147C U148A,≤ -4.2
21,U13A A23G C27U A28C C54U C85U C93U A115C C116G A121G A150C,-3.82

row,Variant,polymerase ribozyme fitness (log ratio)
1,U13C C18G A21U A40C U53G A60U U61A G94U G100A G126A,≤ -4.2
2,U13G C87G,≤ -4.2
3,C14A G94A,-1.67
4,A12G G58A G81C G84A G133C U144G,-1.22
5,A12U C57G U78C C93U U127A,≤ -4.2
6,C14G A29U A30G C96U,≤ -4.2
7,A12G A41C A66G C79U G86C C103A C105A A107G,≤ -4.2
8,A12U A39U U55A G68A C96U U145G,≤ -4.2
9,A12U C79U C93G C132G,≤ -4.2
10,A12G C35U G83A,-0.598
11,A12U U31G A60G G83C,-1.56
12,C14G A16U A39G G124A,≤ -4.2
13,C14A C27G,≤ -4.2
14,A12U C35G C36G U55G G86U,≤ -4.2
15,U13A C35U C57U,-1.42
16,U13A U53A C63G A97U U102G A142C,≤ -4.2
17,C14G A24C A49G G92C,≤ -4.2
18,A12G A17U A49G A60G A91G,-2.9
19,A12U U111C,-4
20,U13G U31C A40G G58U U78C C85G C114U G141U,≤ -4.2
21,A12U C18G C32A G84A C105U U127G,≤ -4.2

row,Variant,polymerase ribozyme fitness (log ratio)
1,C14G A20C C38U A147U,-2.09
2,U13C A39C C72A C76G C99G G140U A147C,≤ -4.2
3,U13G G46A G83A U101A U134A U135C,≤ -4.2
4,A12G A89G,-1.16
5,A12G G70C A113C U144C A147C,≤ -4.2
6,U13G U78G G86U G140A G141A,≤ -4.2
7,U13A A98U U148G,≤ -4.2
8,U13G U56A C57U C87A G88C A89U A121U C125A U148A,≤ -4.2
9,A12G U55C C57G C87G A121G U148A A150C,≤ -4.2
10,C14A A40U C76U U78G G84A C103G G128A G141C,≤ -4.2
11,A12U A24U C43A G46A U53A U55A C57U A60G G80U C93G,≤ -4.2
12,A12G G70A C85U C105G C116A,≤ -4.2
13,U13C C54U C103U,-1.54
14,A12U A40C G92A C118G,-3.87
15,A12U A47G C76A C85G,-3.78
16,C14A U15A G50U A66G U101G C114U C118G G133A A137G,≤ -4.2
17,U13G A37U U55A C57A C76U G86A U127C,≤ -4.2
18,A12U C87U A120U,-0.814
19,U13G U15A C51U C96A A121G,-2.76
20,A12U C27U C38U G59U C63A C93A,-4.12

# Reference: the RNAGym collection of RNA variant scans (doi:10.1073/pnas.2313332121)
